The target of the data set is T1, C-reactive protein (CRP) (human, UniProt P02741 19-224).
T1 sequence: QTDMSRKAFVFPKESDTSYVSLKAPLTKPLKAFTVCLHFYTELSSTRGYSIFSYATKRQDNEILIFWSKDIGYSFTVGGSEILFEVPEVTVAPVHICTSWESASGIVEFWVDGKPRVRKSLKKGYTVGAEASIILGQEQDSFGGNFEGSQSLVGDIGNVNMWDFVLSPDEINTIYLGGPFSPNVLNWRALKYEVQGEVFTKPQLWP
Put plainly: SPR (AuNP-enhanced aptamer sandwich); Apt1 on sensor and on 17 nm AuNPs; 2 mM Ca2+, 10 mM Mg2+; response 0.118 nm/nM; no shift detected with CRP alone before AuNPs; 10 mM Tris, 50 mM NaCl, 2 mM CaCl2, 10 mM MgCl2, 5 mM KCl, pH 7.5; CRP 30 min, AuNPs 10 min; readout in H2O; binding temperature not stated. To be noted: protein: native; chain copies: 5.

B1: Apt1 (anti-CRP aptamer) (ssDNA)
DNA: GGCAGGAAGACAAACACGATGGGGGGGTATGATTTGATGTGGTTGTTGCATGATCGTGGTTGTGGTGCTGT
modifications: 5'-biotin
Turning to B1, the binding result is recorded as “binds”.

Values taken from article PMC7287642, “SPR Biosensor Based on Polymer Multi-Mode Optical Waveguide and Nanoparticle Signal Enhancement”.
